For orientation: Km means the substrate concentration at which the rate is half of its maximum. The term kcat denotes the maximal rate divided by the concentration of active sites. A word on the kcat/Km: it is the second-order rate constant that governs catalysis at low substrate concentration.

Series [1] concerns T1, CC(C)(O)C(O)C(=O)O.
T1 construct: hexa-histidine tag at the N-terminal, pET-28a
Put plainly: Michaelis-Menten kinetics (Km), DNPH assay. In kind it is biochemical, Campylobacter jejuni. The conditions noted are these: [4Fe-4S] cluster, Mg2+ active site.

The subject of series [2] is T1, CC(C)(O)C(O)C(=O)O. Put plainly: Michaelis-Menten kinetics (Km), DNPH assay. In kind it is biochemical, Staphylococcus aureus. The conditions noted are these: [4Fe-4S] cluster, Mg2+ active site.

With “CjDHAD (dihydroxy-acid dehydratase) (Campylobacter jejuni subsp. jejuni NCTC 11168 = ATCC 700819)”, in series [1], the Km stood at 820 µM, the kcat was 6.5 s⁻¹ and the kcat/Km worked out at 7930 M⁻¹ s⁻¹.

Turning to “SaDHAD (dihydroxy-acid dehydratase) (Staphylococcus aureus subsp. aureus NCTC 8325)”, in series [2], the Michaelis-Menten constant (Km) is 1100 µM, the turnover number (kcat) is 2.1 s⁻¹ and the specificity constant (kcat/Km) stood at 1910 M⁻¹ s⁻¹.
